The text below walks through data of patent US7008623 (GlaxoSmithKline, dated 2006).

Test [1] concerns the target T1, soluble CD23 (sCD23) (human, UniProt P06734 150-321, limits assumed).
T1 sequence (looked up): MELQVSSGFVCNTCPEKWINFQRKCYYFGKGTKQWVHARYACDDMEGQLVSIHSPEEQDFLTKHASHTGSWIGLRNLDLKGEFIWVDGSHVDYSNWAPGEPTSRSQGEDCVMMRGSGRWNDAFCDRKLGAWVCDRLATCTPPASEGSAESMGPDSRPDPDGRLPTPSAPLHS
The experiment in a line: ELISA, plate coated with sCD23, OD against antibody concentration. The procedure:
(§1) The chimaeric antibody bound sCD23 in an ELISA assay. For the ELISA assay to determine sCD23 binding, EIA/RIA plates (Costar) were coated with 100 µl/well of 2 µg/ml sCD23 in 35 mM NaHCO_3, 15 mM Na_2CO_3, pH 9.3 overnight at 4° C. Plates were washed three times with 150 mM NaCl, 50 mM Trizma base, 0.1% (v/v) Tween-20, pH 7.4 (TBS/Tween), blocked for 1–2 hours at 22° C. with 100 µl/well of 2% bovine serum albumin in TBS/Tween, and washed three times with TBS/Tween.
(§2) The concentration of chimeric and humanised anti-CD23 antibody required for half-maximal binding to sCD23 was assayed using the sCD23 ELISA already described. Absorbance at 405 nm was plotted versus a range of concentrations of antibody to generate a sigmoidal curve with a "goodness of fit" or correlation coefficient of 1. The absorbance was read using a Molecular Devices plate reader (Menlo Park, Calif., USA) and Softmax (Molecular Devices Corp) software to calculate best fit by a log-logit algorithm then display the curve, equation parameters and correlation coefficient. A discussion of curve fitting appears in "Data Analysis and Quality Control of Assays: A Practical Primer", by R P Channing Rogers in Practical Immuno Assay, editor Wilfrid R Butt; published by Marcel Dekker, Inc., New York 1984. […] The value for x in ng/ml was calculated for the following equation: […]
For orientation: ELISA stands for enzyme-linked immunosorbent assay.

Test [2] concerns the target T1, soluble CD23 (sCD23). The experiment in a line: ELISA, sCD23 coated on plate, antibody concentration for half-maximal binding (log-logit fit). As for the experimental part: as §1, §2
In test [3] the target is T2, purified recombinant CD23 (human, UniProt P06734 150-321, limits assumed).
T2 construct: also called CD23 antigen; immobilised CD23
T2 sequence (looked up): T1 sequence (looked up)
The experiment in a line: Biacore SPR, recombinant CD23 immobilised on CM5, antibody in solution; upper end of the range over 6 batches. The procedure:
(§3) The association rate, dissociation rate and the dissociation rate constant for the binding of humanised anti-CD23 to the CD23 antigen was evaluated on the Biacore Biosensor. Briefly, purified recombinant CD23 was immobilised onto a CM5 sensor surface. Carboxyl groups on the dextran surface were activated by 1-ethyl-3(3-dimethylaminopropyl) carbidimide (EDCO/N-hydroxysuccimimide (NHS). Following activation, recombinant CD23 was passed over the surface to initiate immobilisation. Ethanolamine was then added to quench residual active groups. Humanised anti-CD23 diluted in HBS buffer was passed over the sensor surface. Binding of anti-CD23 to immobilised CD23 was monitored in real time for estimation of the association rate (M^-1 seq^-1). Dissociation of the CD23 and the anti-CD23 complex in buffer was also monitored for estimation of the dissociation rate (sec^-1). The dissociation constant (nM) was calculated from the dissociation and association rate. […] The affinity constant was determined to be approximately 9 ×10^10 Ka mol^-1.
(In general: SPR reads the build-up and loss of mass on a sensor chip optically.)

The target of test [4] is T2, purified recombinant CD23. The experiment in a line: Biacore SPR, recombinant CD23 immobilised on CM5; affinity (association) constant. The procedure:
as §3

The target of test [5] is T2, purified recombinant CD23. The test is described as follows: Biacore SPR, recombinant CD23 immobilised on CM5, antibody in solution; lower end of the range over 6 batches. The procedure:
as §3

Test [6] deals with T2, purified recombinant CD23. The test is described as follows: Biacore SPR, recombinant CD23 immobilised on CM5, calculated from the rates; lower end of the range over 6 batches. The procedure:
as §3

B1: chimaeric anti-CD23 antibody (murine C11 variable regions, human gamma 1 and human kappa constant regions) (antibody, human IgG1, V domains shown)
VH: EVKLEESGGGLVQPGGSMKLSCVASGFTFSGYWMSWVRQSPEKGLEWVAEIRLKSDNYATHYAESVKGKFTISRDDSKSRLYLQMNSLRAEDSGVYYCTDFIDWGQGTL
VL: DIVITQDELSNPVTSGESVSISCRSSKSLLYKDGKTYLNWFLQRPGQSPQLLMYLMSTRASGVSDRFSGSGSGTDFTLEISRVKAEDVGVYYCQQLVEYPFTFGSGTKLEIKR
notes: The VH is fused to the human IgG1 (gamma 1) constant region of Reichmann et al 1988 and the VL to the human kappa constant region of Reichmann et al 1988; It was transiently expressed in COS cells and tested as supernatant; The variable regions were amplified with signal-peptide primers, so the entries may include a leader, and no cleavage site is stated; also called chimeric CD23; chimaeric CD23 …
The EC50 (read off the curve) is the concentration that produces a half-maximal response. Low values mean an effect from little substance, high ones a need for much substance. The term EC50 denotes the concentration that produces a half-maximal response. Low values mean greater potency, high ones weaker potency. For B1, the 50% effective concentration (EC50 (read off the curve)) with soluble CD23 (sCD23) [1] is around 0.06 µg/mL. This molecule also displayed an EC50 with soluble CD23 (sCD23) [2] of 0.0163 µg/mL.

B2: humanised anti-CD23 antibody (IgG1 with mutations 248 Leu to Ala and 250 Gly to Ala, human kappa) (antibody, V domains shown)
VH: EVQLVESGGGLVKPGGSLRLSCAASGFTFSGYWMSWVRQAPGKGLEWVAEIRLKSDNYATHYAESVKGKFTISRDDSKSRLYLQMNSLKTEDTAVYYCTDFIDWGQGTLVTVSS
VL: DIVMTQSPLSLPVTPGEPASISCRSSKSLLYKDGKTYLNWYLQKPGQSPQLLIYLMSTRASGVPDRFSGSGSGTDFTLKISRVEAEDVGVYYCQQLVEYPFTFGQGTKVEIKR
notes: The light chain constant region is human kappa; also called humanised CD23 IgG1m
By koff is commonly meant a measure of how fast the partners let go of each other. Usually kon stands for the rate constant with which the complex forms. For orientation: Kd means the free concentration of one partner at which half of the binding sites on the other are occupied at equilibrium, for simple one-to-one binding. With B2, the “EC50 (read off the curve)” value with soluble CD23 (sCD23) [1] was around 0.03 µg/mL. Moreover, the koff in test [3] came to 2e-05 s⁻¹. In addition, the Ka in test [4] was around 9e+10 M⁻¹. The molecule also displayed an EC50 with soluble CD23 (sCD23) [2] of 0.015 µg/mL. Besides, in test [5], the koff was 1e-05 s⁻¹ and the association rate constant (kon) lay within 1.5e+06 to 1.85e+06 M⁻¹ s⁻¹. Besides, the Kd in test [6] is 8 to 12 pM.
